Source: US20240190991A1, “COMBINATION THERAPY WITH AN ANTI-CA19-9 ANTIBODY AND FOLFIRINOX IN THE TREATMENT OF CANCER” (BioNTech SE, priority 2021, published 2024)

Test system: locally-advanced or metastatic pancreatic ductal adenocarcinoma (PDAC)
Assay: Clinical study of MVT-5873 as monotherapy or combined with FOLFIRINOX in pancreatic cancer patients
Format: in vivo, human
Settings: Group C patients; MVT 5873 0.5 mg/kg in combination with mFOLFIRINOX; one, two or six cycles of therapy
Procedure: A clinical study is performed comparing the therapeutic effect of the use of the MVT-5873 monoclonal antibody (5B1 monoclonal antibody) as a monotherapy or in combination with FOLFIRINOX in the treatment of pancreatic cancer, in patients with locally-advanced or metastatic pancreatic ductal adenocarcinoma (PDAC). Patients having other CA19-9-positive malignancies may also be included in the study.
The patients will be subdivided into the following groups: • Group A: A Q4 week monotherapy schedule employing a single dose of MVT 5873 administered 7 days prior to Cycle 1 Day 1 • Group B: A Q2 week monotherapy schedule employing a single dose of MVT 5873 administered 7 days prior to Cycle 1 Day 1 • Group C: A Q2 week schedule in combination with mFOLFIRINOX mFOLFIRINOX is a dose amount of FOLFIRINOX, in which FOLFIRINOX is administered at a dose of 65 mg/m^2 oxaliplatin, 400 mg/m^2 leucovorin, 150 mg/m^2 irinotecan, and 1200 mg/m^2 5-fluorouracil.
In certain groups, the patients, after completing the combination therapy will be administered the antibody having the ability to bind CA 19-9 as a monotherapy.
The administration schedule for Group C is depicted in FIG. 1.
A number of patients in Group C have been administered MVT 5873 at 0.5 mg/kg in combination with mFOLFIRINOX (65 mg/m^2 oxaliplatin, 400 mg/m^2 leucovorin, 150 mg/m^2 irinotecan, and 1200 mg/m^2 5-fluorouracil). […]

For “MVT 5873: fully human IgG1 monoclonal antibody that targets sialyl Lewis A (sLe^a), an epitope on CA19-9; VH and VL of SEQ ID NO: 2 and 4”, the dose limiting toxicities was “No dose limiting toxicities”.
